Test results reported in article PMC4778124, “A continuous sirtuin activity assay without any coupling to enzymatic or chemical reactions” (Scientific Reports, 2016).
Values joined by “and” are separate entries in the source; they are usually repeats but may differ in a detail not shown here. Equal values may be shown once.

What was measured:
Assay type in all cases: biochemical, human
[1] = tested on: T1, CC(=O)N[C@@H](CCC(=O)O)C(=O)N[C@@H](C)C(=O)N[C@@H](CC(C)C)C(=O)N1CCC[C@H]1C(=O)N[C@@H](CCCCN)C(=O)N[C@@H](CCCCNC(=O)CCCCCCCCCCNC(=O)c1ccccc1N)C(=O)N[C@@H](Cc1ccc(O)c([N+](=O)[O-])c1)C(=O)NCC(=O)NCC(N)=O; test: Continuous fluorescence assay, substrate kinetics; conditions: other: Sirt6 500 nM; fluorescence spectrophotometer (footnote a); 37.0 °C
T1 construct: His-tag; made in house; host or cells: E. coli BL21 DE3
Protocol: The fluorescence measurements were performed on a Hitachi F-4500 fluorescence spectrophotometer (Tokyo, Japan) at λEx = 310 nm and λEm = 405 nm (slitEx = 5 nm, slitEm = 2.5 nm, PMT = 700 V for 3, 4 and 5 as well as slitEx = 10 nm, slitEm = 10 nm, PMT = 950 V for 4a). Each reaction mixture contained assay-buffer, 0.5 mM NAD^+ and various peptide concentrations (0.1–100 μM) and was preincubated for 5 minutes at 37 °C. The reaction was started by adding human sirtuin (0.1–0.5 μM) and observed for 5–10 minutes. Product formation could be monitored by increase of relative fluorescence. This signal was converted into product concentration via calibration lines. […] The reaction mixture was analyzed with HPLC, to control if the entire peptide substrate was turned to product. Additionally the mixture was diluted (0.1–25 μM) and measured with Hitachi F-4500 fluorescence spectrophotometer at the same conditions as described above.
The microtiter plate fluorescence measurements were performed on a Tecan Infinite M200 microplate reader (Maennedorf, Switzerland) at λEx = 320 nm and λEm = 408 nm (lag time 9 μs, integration time […], gain 160, 170 or 182). The reactions (total volume 100 μl) were measured in black low-binding 96-well microtiter plates (NUNC). […] The reaction mixture for the calibration lines was prepared as described for the single fluorescence measurements. […]

[2] = tested on: T2, CCCCCCCCCCCCCC(=O)NCCCC[C@H](NC(=O)[C@H](CCCCN)NC(=O)[C@@H]1CCCN1C(=O)[C@H](CC(C)C)NC(=O)[C@H](C)NC(=O)[C@H](CCC(=O)O)NC(C)=O)C(=O)N[C@@H](Cc1ccc(O)c([N+](=O)[O-])c1)C(=O)NCC(=O)NCC(N)=O; test: HPLC based activity assay; conditions: other: HPLC; Sirt6 0.5 µM; pH 7.8; 37.0 °C
T2 construct: His-tag; made in house; host or cells: E. coli BL21 DE3
Protocol: (§1) For the determination of kinetic constants for all sirtuin mediated reactions solutions containing 20 mM TRIS/HCl pH 7.8, 150 mM NaCl, 5 mM MgCl2 (assay-buffer), 500 μM NAD^+ and varying substrate concentrations (0.5–100 μM) were used. Deacylation was started by adding human sirtuin to reach a final concentration of 0.01–0.5 μM. Enzyme-catalyzed reaction was stopped using TFA (1% final concentration) after 1 min to 180 min of incubation at 37 °C depending on substrate reactivity. The cleavage rate of the different TNFα peptide derivatives was analyzed using analytical reversed phase HPLC. 40 to 80 μl of compounds or reaction solutions were injected and separated using a linear gradient from 5% to 95% solvent B within 6min. The product and substrate peaks were quantified using absorbance at 220 nm or 365 nm (absorption of 3-Nitrotyrosyl moiety). The peak areas were integrated and converted to initial velocity rates calculated from the ratio of product area to total peak area. Linear regression of conversions plotted against time yielded reaction rates in μM/min (relative conversion below 20% of substrate). Non-linear regression according to Michaelis-Menten of the reaction rates at different substrate concentrations yielded KM- and kcat-values using the program SigmaPlot 8 (Systat Software, San Jose, USA). All measurements were done in duplicates. […]

[3] = tested on: T3, CCCCCCCCCCCCCC(=O)NCCCC[C@H](NC(=O)[C@H](CCCCN)NC(=O)[C@@H]1CCCN1C(=O)[C@H](CC(C)C)NC(=O)[C@H](C)NC(=O)[C@H](CCC(=O)O)NC(C)=O)C(=O)N[C@H](C(=O)NCC(=O)NCC(N)=O)[C@@H](C)O; test: HPLC based activity assay; conditions: other: HPLC; Sirt6 0.5 µM; pH 7.8; 37.0 °C
T3 construct: His-tag; made in house; host or cells: E. coli BL21 DE3
Protocol: as §1

[4] = tested on: T1, CC(=O)N[C@@H](CCC(=O)O)C(=O)N[C@@H](C)C(=O)N[C@@H](CC(C)C)C(=O)N1CCC[C@H]1C(=O)N[C@@H](CCCCN)C(=O)N[C@@H](CCCCNC(=O)CCCCCCCCCCNC(=O)c1ccccc1N)C(=O)N[C@@H](Cc1ccc(O)c([N+](=O)[O-])c1)C(=O)NCC(=O)NCC(N)=O; test: HPLC based activity assay; conditions: other: HPLC; Sirt6 0.5 µM; pH 7.8; 37.0 °C
Protocol: as §1

## Sirt6 (Homo sapiens)
[1]
  Km: 23.5 ± 4.9 µM
  kcat/Km: 39 M⁻¹ s⁻¹
[2]
  Km: 17 µM and 17.3 ± 2.6 µM
  kcat: 4.9∙10^-3 ± 0.2∙10^-3 s^-1
  kcat/Km: 2.81∙10^2 M^-1s^-1
[3]
  Km: 6 µM and 5.7 ± 1.3 µM
  kcat: 4.7∙10^-3 ± 0.3∙10^-3 s^-1
  kcat/Km: 8.25∙10^2 M^-1s^-1
[4]
  Km: 18.3 ± 4.4 µM
  kcat: 8.3∙10^-4 ± 0.7∙10^-4 s^-1
  kcat/Km: 45.00 M⁻¹ s⁻¹
